In patent publication US20040214993A1:

Tests used:
[1] = biological target: TNF receptors on WEHI-164 cells (mouse); assay: radioreceptor assay, cold TNF 1,000 ng/tube
[2] = biological target: TNF receptors on WEHI-164 cells (mouse); assay: radioreceptor assay, cold TNF 10,000 ng/tube
[3] = biological target: TNF receptors on WEHI-164 cells (mouse); assay: radioreceptor assay, cold TNF 500 ng/tube
[4] = biological target: TNF receptors on WEHI-164 cells (mouse); assay: radioreceptor assay, cold TNF 100 ng/tube
[5] = biological target: TNF receptors on WEHI-164 cells (mouse); assay: radioreceptor assay, cold TNF 5,000 ng/tube
[6] = biological target: TNF receptors on WEHI-164 cells (mouse); assay: radioreceptor assay, cold TNF 1 ng/tube
[7] = biological target: TNF receptors on WEHI-164 cells (mouse); assay: radioreceptor assay, cold TNF 0 ng/tube
[8] = biological target: TNF receptors on WEHI-164 cells (mouse); assay: radioreceptor assay, cold TNF 10 ng/tube

Chain of TNF receptors on WEHI-164 cells (mouse) (P25118 30-454): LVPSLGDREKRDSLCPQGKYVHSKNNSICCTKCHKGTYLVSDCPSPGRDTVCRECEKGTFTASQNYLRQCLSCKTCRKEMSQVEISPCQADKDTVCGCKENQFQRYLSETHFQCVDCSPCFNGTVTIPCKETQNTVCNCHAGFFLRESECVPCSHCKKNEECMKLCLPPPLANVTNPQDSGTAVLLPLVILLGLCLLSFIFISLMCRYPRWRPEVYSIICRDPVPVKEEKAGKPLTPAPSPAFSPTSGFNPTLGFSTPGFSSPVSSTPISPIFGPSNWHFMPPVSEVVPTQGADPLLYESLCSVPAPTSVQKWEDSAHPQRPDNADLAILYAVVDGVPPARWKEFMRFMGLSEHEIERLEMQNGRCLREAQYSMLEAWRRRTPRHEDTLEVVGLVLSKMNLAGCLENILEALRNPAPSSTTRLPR

“human recombinant TNF alpha (from UniProt P01375 1-233) (ligand)” was tested, and the % SPECIFIC BINDING (of 125I TNF to WEHI-164 cells) [1] was 0%, the % SPECIFIC BINDING (of 125I TNF to WEHI-164 cells) [2] was 0% and the % SPECIFIC BINDING (of 125I TNF to WEHI-164 cells) [3] was 10%. The % SPECIFIC BINDING (of 125I TNF to WEHI-164 cells) [4] was 11%, the % SPECIFIC BINDING (of 125I TNF to WEHI-164 cells) [5] was 0% and the % SPECIFIC BINDING (of 125I TNF to WEHI-164 cells) [6] was 108%. For the same substance, the % SPECIFIC BINDING (of 125I TNF to WEHI-164 cells) [7] was 100% and the % SPECIFIC BINDING (of 125I TNF to WEHI-164 cells) [8] was 64%.
